# Patent US9066986B2, “Anti-CEACAM6 antibodies and uses thereof” (National Research Council of Canada, priority 2010, dated 2015)
# T1: CEACAM6 N-domain (Homo sapiens, UniProt P40199)
# T1 sequence (P40199 35-142 limits assumed): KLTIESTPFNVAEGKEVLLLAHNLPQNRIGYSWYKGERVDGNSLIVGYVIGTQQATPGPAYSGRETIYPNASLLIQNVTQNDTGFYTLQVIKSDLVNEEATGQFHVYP
# Columns and labels:
# BxPC3 cells [1] = test: Matrigel invasion assay; assay type: cell-based, human; details: for invasiveness of treated cells decreased to: 40 μM, 20 hrs, normalized to non-treated control
# Description: Matrigel invasion assay is designed to evaluate the capability of cells to invade into matrigel, an indication of the capacity to metastasize.
# The assay was carried out by using bio-coated Matrigel invasion chambers (BD Biosciences, Bedford, Mass.). […] Only cells that could digest the matrix could migrate through the pores. […] The cells were re-suspended in RPMI medium and seeded on the tops of insert wells at 1×10^5 cells/well density and cultured at 37° C. in a humidified CO2 chamber. After 20 hrs, the non-invasive cells were scrubbed from the top of the insert well using a cotton-swap. The invasive cells on the bottom surface were stained with Calcein AM (Invitrogen) and were photographed with an Olympus BX51 microscope. All experiments were performed in triplicate.
# BxPC3 cells [2] = test: In vitro MTT cell proliferation assay; assay type: cell-based, human; details: for inhibition of BxPC3 cell proliferation: vs starvation medium control
# Description: (§1) Cells were left to grow for 72 h in the presence of the sdAb, then assayed for viability. Briefly, 20 μl of MTT reagent (2 mg/ml in PBS) was added to each well. After four hours, the supernatant was removed, adherent cells were lysed, and the crystals were solubilized with 100 μl dimethyl sulfoxide (DMSO, Sigma) per well. The absorbance of the formazan product was measured with a plate reader at a wavelength of 570 nm. After subtracting background absorbance, results were expressed as absorbance.
# (§2) The medium aliquots were taken from BxPC3 cultures at the time the proliferation assays (Example 9) were performed. For evaluation of dose-dependence effect, antibodies and gemcitabine were used at concentrations of 0.4-25 μM and 0.4-50 nM, respectively. The media were applied to a 10% sodium dodecyl sulfate-polyacrylamide gel electrophoresis gel (SDS-PAGE) that was supplemented with 1.5 mg/ml gelatin. The gel was run at 150 V until the bromophenol blue dye reached the bottom of the gel. SDS was removed from the gel by washing the gel four times with 2.5% Triton X-100 for 30 min at room temperature with gentle shaking using an orbital shaker (28). The gel was then incubated overnight at 37° C. in development buffer comprising 50 mM Tris-HCl, 0.2 M NaCl, 5 mM CaCl2, 5 mM ZnCl2, 0.02% Brij-35, and 0.05% NaN3 at pH 7.4. Gelatinase-digested gelatine-supplemented gels were stained with Coomassie blue. Clean bands produced by MMP-2 and MMP-9 activity were visible against the blue background after de-staining. The relative activities of the gelatinases were determined by using a densitometer (AlphaView, Fluor Chem SP, Alpha Innotech Corporation, San Leandro, Calif., USA).
# MMP-2 = test: Gelatin zymography of conditioned media from treated BxPC3 cells; assay type: cell-based, human
# Description: (§3) Gelatin zymography is used to detect the activity of gelatinases, namely, matrix metalloproteinases MMP-2 and MMP-9 (28).
# as §2
# MMP-9 = test: as above; assay type: cell-based, human; details: for effect on MMP-9 activity: media from treated BxPC3 cells
# Description: as §3, §2
# HUVECs = test: In vitro capillary formation assay with conditioned media of treated BxPC3 cells; assay type: cell-based, human; details: for inhibition of tubule formation (endothelial cell angiogenesis): HUVEC in conditioned media from BxPC3 cells treated 24 hrs, 16 h culture
# Text: Angiogenesis is another critical step in the progression of pancreatic cancer. Relatively complex and dense micro-vessels are localized in pancreatic cancer tissue. Highly vascular tumors are associated with an increased risk of hepatic metastasis and a poor survival rate (Semenza, 2003). Anti-angiogenesis is a valid strategy when employing pancreatic cancer target therapy. Thus, the in vitro capillary formation assay was used to test the ability of conditioned media of sdAb-treated BxPC3 cells to inhibit HUVECs angiogenesis.
# The matrix was then polymerized at 37° C. for 30 min. […] HUVEC cells were then seeded onto the polymerized matrix at 5×10^4 cells per well. The cells were cultured at 37° C. for 16 h then stained with Calcein AM (Invitrogen) for 30 min. Photographs were taken at 100× magnification employing fluorescence microscopy (Olympus BX51). Three fields that were randomly chosen were captured and the lengths of the capillaries in each field were measured.
# CEACAM6 N-domain [3] = target: T1, CEACAM6 N-domain
# Description: Maxisorb 96-well microtiter plates (Nunc) were coated with 2 μg/ml recombinant CEACAM6 protein (N-domain) overnight at 4° C. in phosphate-buffered saline (PBS). 2% fat-free dry milk solution in PBS was used for 2 h at room temperature to block the residual protein-binding sites in the wells. Serial diluted serum or soluble recombinant sdAbs were added to the wells, which were incubated at 37° C. for 24 hr. Detection of llama IgGs and sdAb was performed with goat anti-llama IgG (Bethyl Lab, Montgomery, Tex.), horseradish peroxidase anti-goat conjugate (Cedarlane, Burlington, ON) and the corresponding substrate KPL for peroxidase. The reaction was stopped by adding 1 M H3PO4 and the absorption at 405 nm was measured.
# The sdAb was incubated in mouse serum and the residual binding capacity was measured by ELISA then compared with the same antibody that was not incubated in serum.
# LS174T cells = test: Flow cytometry with FITC-labelled sdAb; assay type: cell-based, human; details: FITC-labelled 2A3, 5 μg/ml, fixed LS174 cells, FACS
# Description: (§4) For flow cytometry, purified sdAbs were labelled with FITC as instructed by the manufacturer (Invitrogen). Different cell lines were grown as a monolayer until they were approximately 80% confluent. After fixing by 10% formaldehyde in PBS for 10 minutes, cells were washed with PBS then incubated at room temperature with different FITC-labelled sdAbs. After one hour of incubation, cells were washed twice with PBS to remove unbound sdAbs and the cells were analyzed by flow cytometry using a FACS Canto flow cytometer (BD Bio-sciences).
# A549 cells [4] = test: Flow cytometry with FITC-labelled sdAb; assay type: cell-based, human; details: FITC-labelled 2A3, 5 μg/ml, fixed A549 cells, FACS
# Description: as §4
# BxPC3 cells [5] = test: Flow cytometry with FITC-labelled sdAb; assay type: cell-based, human; details: FITC-labelled 2A3, 5 μg/ml, fixed BxPC3 cells, FACS
# Description: as §4
# CEACAM6 N-domain [6] = target: T1, CEACAM6 N-domain; test: Affinity measurement by surface plasmon resonance (Biacore 3000); parameters: made in house; host or cells: E. coli; details: SPR, CEACAM6 immobilized, 1:1 Langmuir binding model
# Description: 209 RUs of CEACAM6 and 1746 RUs of Ovalbumin (as reference protein) were immobilized on research grade sensor chip CM5 (GE HealthCare). Immobilizations were performed with an amine-coupling kit (GE Healthcare) and carried out at 50 μg/ml CEACAM6 in 10 mM Acetate, pH 4 (GE Healthcare) and 50 μg/ml of Ovalbumin in 10 mM Acetate, pH 4.5. 120 μL of the sdAb at concentration of 1 nM to 60 nM were injected over the surfaces at a flow rate of 40 μl/min. Analyses were carried out at room temperature in HBS-EP, 10 mM HEPES pH 7.4, 150 mM NaCl, 3 mM EDTA and 0.005% surfactant P20 (GE Healthcare). Regeneration was performed with running buffer (HBS-EP). Data were analyzed with BIAevaluation software 4.1.
# One hundred twenty microliters of CEACAM6 recombinant protein at concentration of 0.1 nM to 200 nM was injected over the surfaces at a flow rate of 40 μl min-1. Analyses were carried out at room temperature in HBS-EP comprising 10 mM HEPES pH 7.4, 150 mM NaCl, 3 mM EDTA and 0.005% surfactant P20 (GE Healthcare). Regeneration was performed with HBS-EP used as running buffer. The data were analyzed by using BIAevaluation software 4.1.
# A549 cells [7] = test: In vitro MTT cell proliferation assay; assay type: cell-based, human; details: 125 μg/ml antibody
# Description: as §1
# LS174 cells = test: In vitro MTT cell proliferation assay; assay type: cell-based, human; details: 125 μg/ml antibody
# Description: as §1
# UM-SCC-22B cells = test: Cell uptake of 64Cu-labelled tracer; assay type: cell-based, human; details: 22B cells compared with BxPC3 cells
# Description: (§5) Cell uptake, internalization, and efflux of ^64Cu-DOTA-2A3-Fc were performed with BxPC3 and UM-SCC-22B tumor cells (negative control). For cell uptake, the cells were seeded into 24-well plates at a density of 1×10^5 cells per well and incubated with 18.5 kBq (0.5 μCi/5 ng)/well of ^64Cu-labelled tracer at 37° C. for 15, 30, 60, and 120 min. The cells were then washed three times with chilled PBS and lysed with 500 μL 0.1 M NaOH. For efflux studies, about 18.5 kBq (0.5 μCi)/well of ^64Cu-DOTA-2A3-mFc were first incubated with BxPC3 cells in 24-well plates for 2 h at 37° C. The cells were washed three times with chilled PBS and allowed to stand with fresh buffer. At various time points, the medium was removed and the cells washed three times with chilled PBS. The cells were then lysed with 500 μL 0.1 M NaOH. The cell lysate was collected and the remaining radioactivity was measured in a γ counter (Packard, Meriden, Conn.). The cell uptake, and efflux were expressed as the percentage of the added dose (% AD) after decay correction. All experiments were performed with triplicate wells.
# BxPC3 cells [8] = test: Cell uptake and efflux of 64Cu-labelled tracer; assay type: cell-based, human
# Description: as §5
# BxPC3 tumor [9] = test: Small animal PET imaging and ROI analysis
# Description: Subcutaneous BxPC3 tumor model was established in 5 to 6-week-old female athymic nude mice obtained from Harlan (Indianapolis, Ind.); 5×10^6 cells suspended in 50 μl of phosphate buffered saline (PBS) were injected and the mice underwent small animal PET studies when the tumor volume reached 100-200 mm^3 (3-4 weeks after inoculation). PET scans and image analysis were performed using an Inveon microPET scanner (Siemens Medical Solutions). About 3.7 MBq (100 μCi/5 μg) of ^64Cu-DOTA-Abs were administered via tail vein injection under isoflurane anesthesia. Five-minute static PET images were acquired at different time points post-injection (p.i.; n=4/group). The images were reconstructed using a two-dimensional ordered-subset expectation maximization (2D OSEM) algorithm, and no correction was applied for attenuation or scattering. For each scan, regions of interest (ROIs) were drawn over the tumor and major organs using vendor software (ASI Pro 5.2.4.0) on decay-corrected whole-body coronal images. The radioactivity concentrations (accumulation) within the tumors, muscle, liver, and kidneys were obtained from mean pixel values within the multiple ROI volume and then converted to MBq per milliliter per minute using the calibration factor determined for the Inveon PET system. […]
# BxPC3 tumor [10] = test: Ex vivo biodistribution (γ-counter); details: 64Cu-DOTA-labelled, 24 hr p.i., n=4
# Description: Blood, tumor, major organs, and tissues were collected and wet-weighed. The radioactivity in the wet whole tissue was measured with a γ-counter (Packard). The results were expressed as percentage of injected dose per gram of tissue (% ID/g) for a group of 4 animals. For each mouse, the radioactivity of the tissue samples was calibrated against a known aliquot of the injected radiotracer and normalized to a body mass of 20 g. Values were expressed as mean±SD (n=4/group).
molecule,measurement,setting,value
"Nc1ccn([C@@H]2O[C@H](CO)[C@@H](O)C2(F)F)c(=O)n1 [gemcitabine, reference compound]",effect on invasion,BxPC3 cells [1],did not affect angiogenesis or invasion
same,IC50,"BxPC3 cells [2]; Homo sapiens, BXPC-3, 72 h, MTT, n=5",12 nM
same,increase of MMP-2 activity,MMP-2; at high dosages,~10%
same,effect on MMP-2 activity,MMP-2; media from treated BxPC3 cells,does not affect MMP-2 and MMP-9 activity
same,increase of MMP-9 activity,MMP-9; at high dosages,~10%
same,effect on MMP-9 activity,MMP-9,slightly increased MMP-9 activity
same,effect on angiogenesis,HUVECs; culture medium from treated BxPC3 cells,inhibitory effects on angiogenesis were not seen
"2A3: anti-CEACAM6 llama single domain antibody (sdAb), SEQ ID NO:4 (protein, Anti-CEACAM6 sdAb) VHH: QVKLEESGGGLVQAGGSLRLSCRTSGRTNSVYTMGWFRQAPGKEREFVAQIMWGAGTNTHYADSVKGRFTISRDSAESTVYLQMNSLKPEDTAVYYCAANRGIPIAGRQYDYWGQGTQVTVSS",BxPC3 invasiveness reduced by,BxPC3 cells [1],~73%
same,invasiveness of treated cells decreased to,BxPC3 cells [1],27.4±8.4%
same,inhibition of BxPC3 cell proliferation,BxPC3 cells [2]; 50 μg/ml,approximately 27%
same,effect on BxPC3 proliferation,"BxPC3 cells [2]; 125 μg/ml antibody, vs irrelevant sdAb BSA12, p<0.0001",inhibits BxPC3 proliferation in vitro
same,residual binding capacity after incubation in mouse serum,CEACAM6 N-domain [3],retained its full binding capacity
same,effect on MMP-2 activity,MMP-2; 5 μM dosage,did not influence MMP-2 activity significantly
same,effect on MMP-2 activity,MMP-2; media from treated BxPC3 cells,not MMP-2 activity
same,MMP-9 activity reduced to,MMP-9; 5 μM dosage,25%
same,culture medium MMP-9 activity down-regulated by,MMP-9; 2A3-treated BxPC3 compared to non-treated cells,33%
same,effect on MMP-9 activity,MMP-9,reduce the activity of MMP-9
same,cells stained positive,LS174T cells,about 16%
same,cells stained positive,A549 cells [4],~20%
same,cells stained positive,BxPC3 cells [5],approximately 90%
same,dissociation rate (kd),CEACAM6 N-domain [6],0.0053 s⁻¹
same,association rate (ka),"CEACAM6 N-domain [6]; sdAb 1 nM to 60 nM, room temperature",1.1e+06 M⁻¹ s⁻¹
same,effect on A549 growth,A549 cells [7],little effect on their growth
same,effect on LS174 growth,LS174 cells,little effect on their growth
same,inhibition of tubule formation (endothelial cell angiogenesis),HUVECs,21%
"^64Cu-DOTA-2A3-Fc: 2A3-Fc conjugated with DOTA and labelled with 64Cu, PET tracer (conjugate, left off: a dimerising Fc or GST) QVKLEESGGGLVQAGGSLRLSCRTSGRTNSVYTMGWFRQAPGKEREFVAQIMWGAGTNTHYADSVKGRFTISRDSAESTVYLQMNSLKPEDTAVYYCAANRGIPIAGRQYDYWGQGTQVTVSS",cell uptake,UM-SCC-22B cells,much lower uptake
same,total cell uptake,"BxPC3 cells [8]; 2 hr incubation, 37° C.",10.13±0.05 % of total added dose
same,radioactivity retained on the cells (efflux),BxPC3 cells [8]; after 2 h incubation in medium devoid of radioactivity,more than 65%
"2A3-Fc: 2A3 sdAb fused to the mouse Fc2b fragment; heavy chain antibody (protein, left off: a dimerising Fc or GST, heavy chain antibody) QVKLEESGGGLVQAGGSLRLSCRTSGRTNSVYTMGWFRQAPGKEREFVAQIMWGAGTNTHYADSVKGRFTISRDSAESTVYLQMNSLKPEDTAVYYCAANRGIPIAGRQYDYWGQGTQVTVSS",invasiveness of treated cells decreased to,BxPC3 cells [1],27.4±4.8%
same,inhibition of BxPC3 cell proliferation,BxPC3 cells [2]; 360 μg/ml,55%
same,tumor uptake,"BxPC3 tumor [9]; 64Cu-DOTA-labelled, PET ROI, 24 hr p.i.",98.2±6.12 % ID/g
same,share of the total injected dose distributed to tumor region,"BxPC3 tumor [9]; 24 hr after injection, average tumor size 184 mm^3",Roughly 18%
same,effect on MMP-2 activity,MMP-2; media from treated BxPC3 cells,not MMP-2 activity
same,effect on MMP-9 activity,MMP-9,reduce the activity of MMP-9
same,"BxPC3 tumor uptake, ex vivo",BxPC3 tumor [10],95.4±29.3 % ID/g
same,inhibition of tubule formation (endothelial cell angiogenesis),HUVECs,49%
